Reference: publication PMC9234330, “Identification of Two Novel Fluorinases From Amycolatopsis sp. CA-128772 and Methanosaeta sp. PtaU1.Bin055 and a Mutant With Improved Catalytic Efficiency With Native Substrate” (Frontiers in Bioengineering and Biotechnology, 2022)

Substrate: C[S+](CC[C@H](N)C(=O)O)C[C@H]1O[C@@H](n2cnc3c(N)ncnc32)[C@H](O)[C@@H]1O
Test: purified protein
Assay type: biochemical, Amycolatopsis sp. CA-128772
Settings: KF 100 mM (methods text says 200 mM), Tris-HCl 50 mM pH 7.8, 50 °C, 10 min

B1: Fam (Amycolatopsis sp. CA-128772) (protein)
chain: MAKPSRPIIAFMSDLGITDDSVAQCKGLMLSVCPDVTIVDVCHTMKPWDVEEGARYIVDLPRLFPEGTVFATTTYPATGTTTRSVALRIKQAAKGGARGQWAGSGAGFERAEGSYIYIAPNNGLLTSVIEEHGYVEAYEVSSTEVIPEQPEPTFYSREMVALPSAHLAAGFPLEKVGRPLADDEIVRFERAKPAQNDDGELVGVVTAIDHPFGNVWTNIHREDLEKLGAGYGTRLRITLDEVLPFDLPLSPTFADAGPIGTPVAYLSSRGYLALARNAASLAYPYNLNAGISVRVVAA
Km: 77.17 ± 14.10 µM | kcat: 0.00285 s⁻¹ | kcat/Km: 37 M⁻¹ s⁻¹
